# Measurements reported in paper PMC11336944, “CWF19L2 is Essential for Male Fertility and Spermatogenesis by Regulating Alternative Splicing” (Advanced Science, 2024).
# B1: PRPF43 (natural protein, mouse (endogenous in testis), UniProt O35286 1-795, looked up)
# chain: MSKRHRLDLGEDYPSGKKRAGTDGKDRERDRDREDRSKDRDRERDRGDREREREKEKEKELRASTNAMLISAGLPPLKASHSAHSTHSAHSTHSTHSAHSTHTGHTGHTSLPQCINPFTNLPHTPRYYDILKKRLQLPVWEYKDRFTDILVRHQSFVLVGETGSGKTTQIPQWCVEYMRSLPGPKRGVACTQPRRVAAMSVAQRVADEMDVMLGQEVGYSIRFEDCSSAKTILKYMTDGMLLREAMNDPLLERYGVIILDEAHERTLATDILMGVLKEVVRQRSDLKVIVMSATLDAGKFQIYFDNCPLLTIPGRTHPVEIFYTPEPERDYLEAAIRTVIQIHMCEEEEGDLLLFLTGQEEIDEACKRIKREVDDLGPEVGDIKIIPLYSTLPPQQQQRIFEPPPPKKQNGAIGRKVVVSTNIAETSLTIDGVVFVIDPGFAKQKVYNPRIRVESLLVTAISKASAQQRAGRAGRTRPGKCFRLYTEKAYKTEMQDNTYPEILRSNLGSVVLQLKKLGIDDLVHFDFMDPPAPETLMRALELLNYLAALNDDGDLTELGSMMAEFPLDPQLAKMVIASCDYNCSNEVLSITAMLSVPQCFVRPTEAKKAADEAKMRFAHIDGDHLTLLNVYHAFKQNHESVQWCYDNFINYRSLMSADNVRQQLSRIMDRFNLPRRSTDFTSRDYYINIRKALVTGYFMQVAHLERTGHYLTVKDNQVVQLHPSTVLDHKPEWVLYNEFVLTTKNYIRTCTDIKPEWLVKIAPQYYDMSNFPQCEAKRQLDRIIAKLQSKEYSQY
# notes: PRPF43 / PRP43 as printed, mouse, endogenous in testis and sorted germ cells; also called PRP43; ILS complex marker PRPF43; source: endogenous, PD10 WT mouse testis extract; endogenous, lysate of sorted germ cells from Cwf19l2‐SKO and control mice
# Target: T1, PRPF8 (mouse (endogenous in testis), UniProt Q99PV0 1-2335)
# T1 construct: PRPF8 (pre-mRNA-processing-splicing factor 8), mouse, endogenous in testis and sorted germ cells; also called spliceosome skeleton marker PRPF8; source: endogenous, PD10 WT mouse testis extract; endogenous, lysate of sorted germ cells from Cwf19l2‐SKO and control mice
# Test: co-IP; PRPF8 antibody immunoprecipitation from sorted germ cells of Cwf19l2-SKO mice (CWF19L2 deleted in germ cells), immunoblotting, bands quantified against control mice; IgG as negative control
# Settings: partners not purified
binder,measurement,value
B1,"fold PRPF43 in the PRPF8 co-IP, control over Cwf19l2-SKO, normalised to PRPF8",1.5 times
